# Assay: soluble on expression in E. coli; label from the status in PepcDB or PDB records
row,Sequence,soluble on expression in E. coli
1,MGKLVEGVWHDVWYDTKANGGKFVREDAGFRDWIKNDSEAVFQPESGRYHLYVSLACPWAHRTLIFRKLKGLEPHIDVTVVCPDMLSQGWQMGLPEPLFGHTRMHQIYTQAKPDYTGRVTVPVLWDKKTNTIVSNESSEIIRMFNSAFNDLTGNHDDYYPEPLRGVIDEWNDYIYPNVNNGVYRCGFATSQEAYEEAFESLFSALDKIDAHLATHRYLAGNKITEADWRLFTTLVRFDAVYVGHFKCNKQRIADYVNIQGYLKELYQIDGIADTTDFYHVKRHYYFSHTGINPTQVVPKGPDLDFSSPHQREMIG,soluble
2,MGSDKIHHHHHHMNVLALDTSQRIRIGLRKGEDLFEISYTGEKKHAEILPVVVKKLLDELDLKVKDLDVVGVGIGPGGLTGLRVGIATVVGLVSPYDIPVAPLNSFEMTAKSCPADGVVLVARRARKGYHYCAVYLKDKGLNPLKEPSVVSDEELEEITKEFSPKIVLKDDLLISPAVLVEESERLFREKKTIHYYEIEPLYLQKSIAELNWEKKKRG,soluble
3,MIRHLEFKSRTRTDMIDITSAVQEQVRSAAVRNGVCHLFVLHTTAGITINEGADPAVQRDMVNFLDRLVPIDPYFTHAEGNSDAHIKSTLTGTSLTVFIVEGKLLLGSWQSIYLCEFDGPRHRRVAVKVVPDPLEHHHHHH,not soluble
4,MSLQESSFVHLHNHTQFSVLQSTMAVPDLVAAAAKHNMPAVAITDHANMMGAFHFVNAVKKHNSAIANDSENTSQPIKPIIGCEFFVCEDHTDRTHKDNGYQMVILAKNKKGYHNLAKMSSMGFTKGFYYIPRIDKKLIETYKDDLIVLSGSLYGEIASKLLNLGENQAEESLVWWKETFGDDFYVEIMRHQQEDEERANEALIRLANKHDINLVATNNTYYADQKDANAHDILLCVKEGEKQATPIGRGRGYRYGLPNDQYYFKSAEEMKSLFKDLPQAISNTEAIANKVEAFELAREVLLPAFVIPEQFLDEADKTDAGKRGENAYLKHLTFEGAKRRYGELSEEIKDRLDFELSVIANTGYPGYFLIVEDFIREARKMGVSVGPGRGSAAGSAVAYCLKITNIDPIKYDLLFERFLNPERVSMPDIDIDFDDEGRSKVMDYVIEKYGQNQVAQIITYGTMAAKSAIRDTARVLDLPLYEADRIAKLIPDMSKLGKIFSMNEKEEGHHHHHH,soluble
5,MGSDKIHHHHHHMKAYAFGFPKIGEKREFKKALEDFWKGKITEEQFEEEMNKLRMYMVENYRKNVDVIPSNELSYYDFVLDTAVMVGAVPERFGEYRGLSTYFDMARGGKALEMTKFFNTNYHYLVPEIETEEFYLLENKPLEDYLFFKSKGIETAPWVIGPFTFLYLSKRNGEWIRRPNQMEKLLESLVSVYKEVFEKLVENGCKEILVNEPAFVCDLEKAHWDLILNVYRELSEFPLTVFTYYDSVSDYEACVSLPVKRLHFDFVSNEENLKNLEKHGFPEDKKLVAGVINGRQPWKVDLRKVASLVEKLGASAISNSCPLFHLPVTLELENNLPGGLKEKLAFAKEKLEELKMLKDFLEGKTFDLPNVSFEDFAVDLQAVERVRNLPEDSFRREKEYTERDRIQRERLNLPLFPTTTIGSFPQTPEVRKMRSKYRKGEISKEEYEAFIKEQIKKAIELQEEIGLDVLVHGEFERTDMVEFFAEKLNGIATTQNGWVLSYGSRCYRPPIIYGTVTRPEPMTLKEITYAQSLTEKPVKGMLTGPVTIMSWSYYREDIPEREIAYQIALAINEEVKDLEEAGIKIVQIDEPAFREKAPIKKSKWPEYFEWAINAFNLAANARPETQIHAHMCYSDFNEIIEYIHQLEFDVISIEASRSKGEIISAFENFKGWIKQIGVGVWDIHSPAVPSINEMREIVERVLRVLPKELIWINPDCGLKTRNWDEVIPSLRNMVALAKEMREKFES,not soluble
6,MPSLAELTKSLSIAFENGDYAACEKLLPPIKIELIKNNLLIPDLSIQNDIYLNDLMITKRILEVGALASIQTFNFDSFENYFNQLKPYYFSNNHKLSESDKKSKLISLYLLNLLSQNNTTKFHSELQYLDKHIKNLEDDSLLSYPIKLDRWLMEGSYQKAWDLLQSGSQNISEFDSFTDILKSAIRDEIAKNTELSYDFLPLSNIKALLFFNNEKETEKFALERNWPIVNSKVYFNNQSKEKADYEDEMMHEEDQKTNIIEKAMDYAISIENIV,soluble
7,MRQRFLPLLALLSLLLPLPAPAAPTVSTVADQTGIALTIYNRNLGLVKDRREIRLAPGNGELRFMDVAAQIIPTSVSIASLAGGELQVLEQNYEYDLLSPQKLMDKYVGKEVKLHQKNPYTEREEVVTATLLSNNGGPVYRIGDEITFGHPGRLIFPGVPDDLIARPTLVWLLEGAAVEKRTIEASYLTGGISWRADYVVTLSEKDDQANLAGWVTIDNRSGAAYRNATLKLVAGDVNRVQEQSTRFAKSVRAEAMAPAPQFQEEAFFEYHLYTLQRPSTIKENQTKQINLVTADAVPVKKEFLLKGESFYYQSPAGEVEKQKVGVFVEMENRKEHNLGMPLPKGIVRVYKRDAGGSLQFVGEDTIDHTPEKETVRVKLGDAFDVVGERKQTEWRKVASDTYESAFEIRLRNHKKEDITVKVVEPVPGDWQMLSSSHPHEKGDAFSAVFKVPVPKDGEATLVYRVRMRYLEHHHHHH,soluble
8,MGSDKIHHHHHHMLLVENFDLRATMEQPTSFDEMWGTSGSLREPYREFHDWFGSEDPARLRKKQRDADKLFRLTGITFNVYGKAEAEERLIPFDIIPRIISGSEWARLSRGIEQRVRAINAFLYDIYHKQEIVKAGRIPKEMISRNDAFLPHMIGVEPPGGVYTHIVGIDLVRTGPGEFYVLEDNARTPSGVSYMLENRETMLQMFPELFSQNRVQPVSNYPTDLRRSLAASAPQSCTGKPVVAVLTPGIYNSAYFEHAFLADKMGVELVEGQDLRVIDGRVAMRTTRGYKPIDVLYRRVDDEFLDPLNFNPESALGVPGIMDVYRAGNITIANAPGTGIADDKAIYSYMPEIVEFYTGERPLLQNVQTWRCSEPDALAYVLDNLEDLVVKEVHGSGGYGMLIGPTASKKDLAAFRRKLKARPGNYIAQPTLALSTVPIFSRAGLSPRHVDLRPFVLCSPNKVHITPGGLTRVALKKGSLVVNSSQGGGTKDTWVLED,not soluble
9,NKGKDITSWVNKALDAIAALFSAKTWKRKPKMKVHYGNNTRQNDYDYNARKKAQSDEIDRILDKLKKSGYESLTTEEKKSLFDASKR,not soluble
10,MGSDKIHHHHHHMAKAKTAYSCTECGGQTPKWQGQCPSCMAWNTLVESVVEAAPSQNRYAALAQSSGLQKLADVEAADVPRHPTGIHEFDRVLGGGLVPGGVVLIGGDPGIGKSTLLLQTLCHIGGMRKAVYVSGEESAQQIAMRAKRLGLDAGPVELLAEISLEKILAILQQHKPEVAVIDSIQTLYSEALQSAPGSVAQVRECSAQLTRFAKQTGVTMILVGHVTKEGSLAGPRVLEHIVDTVLYFEGGQNSSFRLVRAFKNRFGAVNELGVFAMTEKGLREVSNPSALFLSHHAEQVAGSCITVTQEGSRPLLVEVQALVDEAHAPNPKRLCVGLEQNRLAMLLAVLHRHAGVACFDQDVFINAVGGVRISEPAVDLAVLLAIVSSLKNKPLNNKLIVFGEVGLAGEVRPVQRGQERLREAAKLGFTHAIVPKANLPKQVIDGLDVKGVERLDQALQLLRNG,not soluble
11,MNSSKAGGCHGINDIKVKTAKPKDKPYKLADGGGMYLLINTNGSKYWRMKYRFAGKEKMLSIGVYPDVTLADAREKRSEARKLLAAGGDPGEAKKEEKIAQQMSLKNTFEAIAREWHQLKADRWSLRYRDEIIDTFEKDIFPYIGKRPIAEIKPMKLLEALRKMEKRGALEKMRKVRQRCGEVFRYAIVTGRADYNPAPDLASALATPKKVHFPFLTANELPHFLNDLAGYTGSIITKTATQIIMLTGVRTQELRFARWEDIDFETKLWEIPAEVMKMKRPHIVPLSEQVIMLFKQLEPISKHHPLVFIGRNDPRKPISKESINQVIELLGYKGRLTGHGFRHTMSTILHEQGFNSAWIEMQLAHVDKNSIRGTYNHALYLDGRREMMQWYADYIDSLSSRES,not soluble
12,MSLLMKGTYCLIINCRGTERRIGSLGTVRFPPGFYVYVGSGFSSLEARIKRHLSSEKRRRWHIDHFLDGAEVECVLYTTDKRRLECAVSEKLHGEKSVRGFGCSDCSCKSHLHHFKNKNDATESVKRAFRELGAEVHEWGIEGHHHHHH,soluble

# Source: the DeepSol protein solubility set
